The values that follow are results of earlier work, collected in PMC6472649.

Read-outs that look alike come from different tables or passages of the source.

Data set [1] concerns the target SFLLRN ligand (Homo sapiens). Description: FD-AFM.
Data set [2] addresses SFLLRN ligand (Homo sapiens). Description: FD-AFM. The source holds these as a separate data set.

With PAR1 (from UniProt P25116), the dissociation constant Kd (commonly a measure of binding affinity in units of concentration) in data set [1] was 0.35 µM; in data set [2], 40 µM.
